Assay results: US5286714

Biological target: thrombin
Assay: Ki(app.) from kinetics of thrombin inhibition with chromogenic substrate D-HHT-Gly-Arg-pNA (Stone and Hofsteenge), 25° C.

| Molecule | Ki |
| --- | --- |
| [Ile^1,Thr^2] desulfatohirudin | 0.61 nM |
| [Ala^1,Thr^2,Glu^33,Glu^53] desulfatohirudin (protein) ATYTDCTESGQNLCLCEGSNVCGQGNKCILGSDGEKNQCVTGEGTPKPQSHNEGDFEEIPEEYLQ | 0.37 nM |
| [Ala^1,Thr^2,Glu^53] desulfatohirudin (protein) ATYTDCTESGQNLCLCEGSNVCGQGNKCILGSDGEKNQCVTGEGTPKPQSHNEGDFEEIPEEYLQ | 0.38 nM |
| [Ala^1,Thr^2,Glu^33,Gln^52,Glu^53,Glu^55]-desulfatohirudin (protein) ATYTDCTESGQNLCLCEGSNVCGQGNKCILGSEGEKNQCVTGEGTPKPQSHQEGEFEEIPEEYLQ | 0.3 nM |
| [Ala^1,Thr^2,Ala^54] desulfatohirudin (protein) ATYTDCTESGQNLCLCEGSNVCGQGNKCILGSDGEKNQCVTGEGTPKPQSHNDADFEEIPEEYLQ | 0.27 nM |
| [Ala^1,Thr^2,Glu^33,Gln^52,Glu^53,Ala^54]-desulfatohirudin (protein) ATYTDCTESGQNLCLCEGSNVCGQGNKCILGSEGEKNQCVTGEGTPKPQSHQEADFEEIPEEYLQ | 0.31 nM |
| [Ala^1,Thr^2,Glu^33,Ala^54] desulfatohirudin (protein) ATYTDCTESGQNLCLCEGSNVCGQGNKCILGSEGEKNQCVTGEGTPKPQSHNDADFEEIPEEYLQ | 0.35 nM |

Stronger by Ki, values ahead:

| Ki | Molecule |
| --- | --- |
| 0.22 nM | [Ala^1,Thr^2,Gln^52,Glu^53,Ala^54] desulfatohirudin (protein) ATYTDCTESGQNLCLCEGSNVCGQGNKCILGSDGEKNQCVTGEGTPKPQSHQEADFEEIPEEYLQ |
| 0.2 nM | [Ala^1,Thr^2] desulfatohirudin |
| 0.19 nM | [Ala^1,Thr^2,Gln^52,Glu^53,Glu^55] desulfatohirudin (protein) ATYTDCTESGQNLCLCEGSNVCGQGNKCILGSDGEKNQCVTGEGTPKPQSHQEGEFEEIPEEYLQ |
| 0.16 nM | [Ala^1,Thr^2,Glu^33] desulfatohirudin (protein) ATYTDCTESGQNLCLCEGSNVCGQGNKCILGSEGEKNQCVTGEGTPKPQSHNDGDFEEIPEEYLQ |
| 0.14 nM | [Leu^1,Thr^2] desulfatohirudin |
